According to patent US20260139035A1 (NATIONAL UNIVERSITY CORPORATION KUMAMOTO UNIVERSITY, published 2026):

Molecular target: spike protein of SARS-CoV (SARS-CoV, UniProt P59594 14-1255)
Experiment: cell-based or functional assay

B1: 4-66 antibody (antibody, V domains shown)
VH: EVQLVESGGGLVQPGGSLRLSCAASGIIVSRNYMTWVRQAPGKGLEWVSVIYSGGTTYYADSVKGRFTTSRDDSKNTLYLQMNSLRGDDTAVYYCARDPPHRRGSYWGQGTLVTVSS
VL: DILMTQSPSSLSASVGDRVTITCQASQDINKYLNWYQQKPGKAPKLLIYDASNLETGVPSRFSGSGSGTDFSFTISSLQPEDVATYYCQQSDNLPPTFGQGTNVEIK
B1 was tested, and the “IC50, neutralization” value was 0.55 µg/mL.
